Reference: patent US20240383950A1, “RECOMBINANT GLYCAN BINDING PROTEINS AND ITS USE” (UNICHEM LABORATORIES LIMITED, priority 2021, published 2024)

Columns and labels:
[1] = tested on: Ovarian Cancer cell line PA-1; assay: MTS-PMS cytotoxicity bioassay, PA-1; conditions: 80 μg/ml; 5000 cells/well
Description: 5000 cells/well were used for testing.
(§5) The drug Doxorubicin was used as system suitability (SST) reference.

[2] = tested on: Blood Cancer Cellline MOLT-3; assay: MTS-PMS cytotoxicity bioassay, MOLT-3; conditions: 80 μg/ml; 5000 cells/well
Description: 5000 cells/well were used for testing.
as §5

[3] = Stability of expressed protein in TBS buffer; type: physicochemical; conditions: for % Single max impurity / % Total impurity / % purity: 10 mM TBS buffer pH 7.8, 2-8° C.
Protocol: Stability of expressed protein i.e., SEQ ID NO. 3 was evaluated for 2 weeks using 10 mM TBS buffer with pH 7.8 at 2-8° C.

[4] = tested on: Blood cancer cellline Jurkat E6; assay: MTS-PMS cytotoxicity bioassay, Jurkat E6; conditions: 80 μg/ml; 5000 cells/well
Description: 5000 cells/well were used for testing.
as §5

pI of purified protein = type: physicochemical
Description: The molecular mass and pI of purified protein of SEQ ID NO. 3 and SEQ ID NO.

[5] = tested on: human urinary Bladder cancer cell line (T-24); assay: Cytotoxicity bioassay of conjugate, T-24; type: cell-based; conditions: 72 hours; Cell titer glow
Protocol: (§1) Bioassay—Cytotoxicity effect Conjugate of Example 8 against ovarian cancer cell line (PA-1) and human urinary Bladder cancer cell line (T-24) was assayed.
(§2) 5,000 cells/well were plated and incubated at 37° C. overnight.
(§3) Conjugates/vehicle control dilutions were made in respective media and added to cells. Volume added: 50 uL to each well. […] Each concentration was analysed in triplicates. Media-only wells was used as a control to calculate percent viability. Cell titer glow reagent (volume: 50 uL) was added to each well, the plate was shaken for 5 mins and the luminescence was recorded. Drug Treatment Time: 72 hours. Percent viability was calculated by dividing the luminescence signal obtained for each treated well by the untreated well (media-only control) and multiplying by 100.
(§4) Data was next transformed using X=Log(x) and then analysed with nonlinear regression (curve fit), Dose Response inhibition−log (inhibitor) vs response (3 parameters) using PRISM software to determine the IC50 value.

[6] = tested on: ovarian cancer cell line (PA-1); assay: Cytotoxicity bioassay of conjugate, PA-1; type: cell-based; conditions: 72 hours; Cell titer glow
Protocol: as §1, §2, §3, §4

[7] = Glycan binding study, N-Glycan array
[8] = Glycan binding study, O-Glycan array, core 2; conditions: O-Glycan array containing 94 glycans
[9] = tested on: bladder cancer cells (T24); assay: Colocalization study in cell organelles by confocal microscopy; type: cell-based; conditions: FITC-labelled, 100 μg/mL, 2 h, 37° C.

B1: SEQ ID NO. 3: SEQ ID NO. 2 re-engineered: Serine at 1st position, Glycine at 76th position, Cysteine added at carboxy terminal end (protein)
chain: SYKITVRVYQTNPDAFFHPVEKTVWKYANGGTWTITDDQHVLTMGGSGTSGTLRFHADNGESFTATFGVHNYKRWGDIVTNLAADETGMVINQQYYSQKNREEARERQLSNYQVKNAKGRNFQIVYTEAEGNDLHANLIIGC
% Cytotoxicity on Cell-lines PA-1 [1]: 82%
% Cytotoxicity on Cell-lines MOLT-3 [2]: 43%
% Single max impurity ([3]; 0 Week): 1.31%
% Total impurity ([3]; 0 Week): 1.95%
% purity ([3]; 0 Week): 98.05%
% Single max impurity ([3]; 1 Week): 0.98%
% Total impurity ([3]; 1 Week): 2.66%
% purity ([3]; 1 Week): 97.34%
% Single max impurity ([3]; 2 Week): 0.86%
% Total impurity ([3]; 2 Week): 2.91%
% purity ([3]; 2 Week): 97.09%
stability ([3]; 2 weeks, 10 mM TBS buffer with pH 7.8 at 2-8° C.): stable
% Cytotoxicity on Cell-lines Jurkat E6 [4]: 68%
pI (pI of purified protein): 6.49

B2: Conjugate of Example 8: Protein of SEQ ID NO. 3 conjugated to cytotoxic drug MMAE using MC-Val-Cit-PAB-MMAE; DAR value 1.0 (conjugate)
chain: SYKITVRVYQTNPDAFFHPVEKTVWKYANGGTWTITDDQHVLTMGGSGTSGTLRFHADNGESFTATFGVHNYKRWGDIVTNLAADETGMVINQQYYSQKNREEARERQLSNYQVKNAKGRNFQIVYTEAEGNDLHANLIIGC
modifications: MC-Val-Cit-PAB-MMAE conjugate, DAR 1.0
notes: DAR value 1.0
IC50 [5]: 325 nM
IC50 [6]: 17.7 nM

B3: SEQ ID NO. 2: recombinant glycan binding protein, variant of Sclerotium Rolfsii Lectin, disclosed in Indian Patent Application 350/MUM/2009 (protein)
chain: TYKITVRVYQTNPDAFFHPVEKTVWKYANGGTWTITDDQHVLTMGGSGTSGTLRFHADNGESFTATFGVHNYKRWCDIVTNLAADETGMVINQQYYSQKNREEARERQLSNYQVKNAKGRNFQIVYTEAEGNDLHANLIIG
binding to N-glycans [7]: specific binding to N-glycans containing GlcNac at the non-reducing end
% Cytotoxicity on Cell-lines PA-1 [1]: 81%
Estimated Kd for core 2 [8]: 0.212 µg/mL
% Cytotoxicity on Cell-lines MOLT-3 [2]: 46%
Estimated Kd for T antigen (O-Glycan array containing 94 glycans): 0.319 µg/mL
binding profile to O-glycans (O-Glycan array, T-antigen and its extended core structures): strong and broad binding profile to O-glycans
% Cytotoxicity on Cell-lines Jurkat E6 [4]: 61%
colocalization in cell organelles [9]: colocalized in Mitochondria, Endoplasmic reticulum, Golgi bodies and Plasma membrane

B4: SEQ ID NO. 4: SEQ ID NO. 2 re-engineered: Serine at 1st, Glycine at 76th, Serine added at 142nd and Cysteine at 143rd position (protein)
chain: SYKITVRVYQTNPDAFFHPVEKTVWKYANGGTWTITDDQHVLTMGGSGTSGTLRFHADNGESFTATFGVHNYKRWGDIVTNLAADETGMVINQQYYSQKNREEARERQLSNYQVKNAKGRNFQIVYTEAEGNDLHANLIIGSC
pI (pI of purified protein): 6.49
